20 sequences from a protein production outcome set (Wang et al. 2014) can be followed below.

This data set can be described thus: label from the status in PepcDB records.
As for “MNGQAKTISASAKGIPQPSNNNFVDFTMSYNGTTKVMSITYGGQTWTQNVSSFIGTNQAMSFSIAASTGAQMNLQQLRNVNFTYTVAQGTVIANYVDEQGNTIAQQETTSGDIDTPYVTSQKTIPGYTFKASNGAATSGNYAANDQTVNYVYTRNQGSIDVTYIDQTTGQTLSKKDLSGGTGDSSNYTTTDTIKSYTDAGYELVSDNYPSGGTVFTDTAQHYVVNLKQKLVVSSEQKQVNETIQYVYEDGSKAADDYNAPPLNFTRSVTTNQVTGEKTYGDWQAQNGDSFGEVVSPTIKGETADQLKIDAISGITANSADIQKKVVYKRNQGTIDVTYIDETTGQVLTKKDLSGGTDDPSNYTTADDIKSYTDKGYELVSDDYPSGGTVFTDEPQHYVVKLKHGLTESTDKKAVNQVIHYVYEGGGEAATDHNATVDFSRTITTDRVTNDKTYGDWTADNGDSFASVTSPVIDGYTADQLKVSEMTGITADTEDISVTVTYTRNQGTIDITYIDQTTGQTLSKKDLSGGTGDDSGYTTADTIKSYTDKGYELISDDYPEDGTKFADDPQHYIVRLKHGLTEVTENKTVNQVIHYVYEGGGEAATDHNATVVFSQTITTDKVTGEKTYSDWTADNGDSFASVTSPVIDGYTADQLKVSEMTGITVDTEDISVTVTYTRNQGTIDVTYIDETTGKILTTKDLSGGTGDDSGYTTADTIKSYTDKGYELVSNDYPEDGTKFADDPQHYIVRLKHGTVVETENKSVNEVIHYVYDNGDKAADNYKATIVFSRTITTDKVTGEKTYSDWTADNGGRFAAVLSPIIKDYIASQLKVDEMTGITVDTADIERIVVYHKVPAGIIVPPVHPDKPSQPSNNQSKIPTAKAVKDSKPTDVLPSTGDSQKSQIVLTLLGIMAVIISPLALLLRRRKQ”, the protein production result was “failed”.

Regarding “MNGVELTLTGAEVLLPGGPARRDLCLSGGQVVDAPAGRQVDLSGYLVLPGIVDLHGDGFERHMAPRRGAMKEMGEGVVAAEAELAANGITTAVLAQFWSWEGGLRGPDFAAGVFQAIRQVQGSLVTDLIPQLRFETHLLEDYAALPDRLAEWQVPYVVFNDHLPHDRLAEGRKPPRLAGQALKAGRSPEAHLALLQALHANGPQVPAALDKLCAELHRRGVRMGSHDDHSAEDCATGQGRGLTISEFPETLEAAEATRASGGHVILGSPNVVRGGSHKGNVSALDLITMGLCDALASDYHYPSPRRAALMLVRTGLLDLAAAWALVSSGPARVLGLDDRGELAPGKRADLVILDAQSHRVAATFAAGRVSYMSGDVATRFLA”, the protein production result was “failed”. As for “MNGYIINIRYQQMGRVIYMFFFAIFGIQDKNKHIGNCNNIVCPSCGRLSMYEVYKYYKYFHIFFLPIFKWDVRYIVKTSCCGCLYELDPLVGKEFEKNPSTEIREENLQRIDRYSPFKYCSNCRTEVPVEYSYCPYCGERLLEHHHHHH”, the entry is “failed”; as for “MNGYRRKNMRLINTTSSHQHLVKNQLKHTDATLVETYSAGNTDVIFTQAPKHYELLISNKHRAIKDNEIETIREFFLKRKINKNIILLDQLKTLHTANLIEISIPIAD”, “failed”. As for “MNHAITMGIFWHLIGAASAACFYAPFKKVKHWSWETMWSVGGIVSWLILPWAISATLLPDFWAYYRSFSASTLLPVFLFGAMWGIGNINYGLTMRYLGMSMGIGIAIGITLIVGTLMTPIINGQFAVLMHTQGGQMTLLGVLVAVIGVGIVTRAGQLKERKMGIKAEEFNLKKGLLLAVMCGIFSAGMSFAMNAAKPMHDAAAALGVDPLYAALPSYVVIMGGGALVNLGFCFIRLAKVKNLSVKADFSLAKPLIISNLLLSALGGLMWYLQFFFYAWGHASIPAQYDYMSWMLHMSFYVLCGGVVGLVLKEWNNAGRRPVSVLSLGCVVIIIAANIVGLGMAS”, the entry is “failed”; as for “MNHPAHHGPTVTPKRRHPDSTGAAPVGIVIATRNRRASLAVTVRNLLALPERPDVLVVDNASTDDTRAMLARDFPQVRVLPLPYNRGALARTHGVRALDTPYVAFSDDDSWWAPGALGAAARHFDDHPRLGLLSARTLVGPGDAADPLNDLLADSPLGTATDLPGTQVLGFLGCAAVARRTAYLDAGGYHPLLFFGGEETLLAYDLAARGWGVTHCPDVIAHHHPHPRPRTGRPAVVRRNALLTAWLRRPLPHALARTRALAADARRDPHARHALRETLTRLPAALRARRPLPPHVERAARLLDGADGPDGPGGAVSLEHHHHHH”, “not failed”; as for “MNHPDLAGKVAIVTGAGAGIGLAVARRLADEGCHVLCADIDGDAADAAATKIGCGAAACRVDVSDEQQIIAMVDACVAAFGGVDKLVANAGVVHLASLIDTTVEDFDRVIAINLRGAWLCTKHAAPRMIERGGGAIVNLSSLAGQVAVGGTGAYGMSKAGIIQLSRITAAELRSSGIRSNTLLPAFVDTPMQQTAMAMFDGALGAGGARSMIARLQGRMAAPEEMAGIVVFLLSDDASMITGTTQIADGGTIAALW”, “not failed”.

On to “MNHRSVRGICATLGVLLVIGCSGPDAKKAKFYAKGKELYDKGDYAKAALEFKNAIQIDPKYAEAYHMLGLVEMKKGNIKGAFGNFTKAVELNPQHQEARLQLGRIYLGAGAPDEAMKEAVEVLKINPASEDAQLLKGAVLIARKEKGKARELLEGLVAKGVKKPDAYSLLASIHALDGNAKDAEAILRKGLAINPSSSDLHLTLAGLCVGTGRTDEAISLLQRVVSLEPGRTDHRLKLAALCWDTGKVAEARKALTDLVAIAPEKEENRLQAAGFLAGKGEADEAEKLLKEGIAGKGKNYKLRFALADLYLNTGKGDQAVTLLTETAGLDKASRQESLQAKNALAQIALDRNRVDEAVKLVTEVLKESPKNTDARFLKGNIHMMKGEGAQAVAEYRTVVTDNPQSVPGFIRLAEAHLLNREKNLAFDNLQNALKIDPENRDALVALARYHVMQKDMKNAEAALRKVLAKSPNDLEAKAELGDLFLAAGDLKRAEAEYGELKRKAPGLPVGYVKMGDIYLHRGKSDKALAELEQAVRLNPSSELLAGSLARLYTRLGKFDKAEFLLDQRLKQNPNDAASYTLLGQMNVARNQYGKARQAYEKALSLNGSNWSAANDLAFLLAETGSGADLDRALTLIEKVKQSRPDDPRVLDTVGWIYYKKGNAGKAVEILSQVHRKTGDSPVIDYHLGMASYKAGDKARAKELLTKAMTSKSGFAGREEAVKTLGIIKG”, for which the protein production entry is “failed”. As for “MNHSFRTGITGRRFSAMRVPYGRSRRTHRNGGAGREGTTMTTTTTPTTTTPTSPPTVKAPTVKAPTAKTATAKTADNPVLRVAPASPAAAAAYFGASLAFHADVSDVATALAAGGDPGFVVLDSRSTASWDQGHVPGAVHLPTALIPEQAEQLLDRSVPVVTYCWGPGCNGATRAALALAELGFQVKEMLGGFEYWVREGFEYETWEGRDHRVADPLTAPVDADDCGC”, the entry is “failed”; as for “MNHTADNCIFCKIIDGQILCSKVYEDEHVLAFLDISQVTKGHTLVIPKVHKQDIFALTPEIASHIFSVVPKIANAIKAEFNPVGFNLLNNNGEKAGQTVFHFHLHLIPRYGENDGFGAVWKSHQNEYTMENLQNIASTIANSVK”, “not failed”. Take “MNHTLQFPKAPEHLLQALNEVIPKCKLMAQQLPETAISLWLIPPVFPTERLDDDIIRRIWSDTPYWIFCWASGLAMAQWLLAEPHHVKDKVVLDFGAGSGVVAIAAKMAGAKRVICCDIDETSLNACRENALLNNVELEYLNDLYLSESVDILLAADVLYDQSNRFFLDEFLKFAPEVWVADSRVKNFSHPGYIKIDERSATTWPDLDEAKEFRNVSFYKTL”: the protein production result is recorded as “failed”. As for “MNIDAVVEFTKKHLKDEKTGHDFYHGQRVANLASKMYLEDHPDAHADSRMVAIIKSGGYLHDTIDEKVCDNPDKVIAEIKELLPEVGFTDLEVWDILFTIQHMSFSANIEHHYHLPLSGQYVQDADRLESLGAMGIARAFTYGGKHGNKIYDPEIKPEKLVSHDQYRNHVETTINHFYEKLFHLADTMNTPAMKKEANRRTEYMHNFVQEFMNEWNVLEHHHHHH”, the entry is “not failed”.

Take “MNIDLSAIFAQYEALVAETDALFERVRALHPDCVTCGLGCSDCCHAMFDLSLVEAMYLNGKFAASFDFGPERSAVLERASDADRHAYRIKRRMYRESEDGRPAEDILAEAARERVRCPLLGEGDACVLYAHRPITCRLYGIPTAIGGKGHTCGKTAFRAGEKYPTVAVDRIQDRLAALSKEIAVAVGSRFSELHQVYVPVSMALLTRYDDAYLGIGKPKRDD”: the protein production result is “failed”. “MNIGLLEALDQLEEEKGISKEEVIPILEKALVSAYRKNFGNSKNVEVVIDRNTGNIKVYQLLEVVEEVEDPATQISLEEAKKIDPLAEVGSIVKKELNVKNFGRIAAQTAKQVLIQRIRELEKEKQFEKYSELKGTVTTAEVIRVMGEWADIRIGKLETRLPKKEWIPGEEIKAGDLVKVYIIDVVKTTKGPKILVSRRVPEFVIGLMKLEIPEVENGIVEIKAIAREPGVRTKVAVASNDPNVDPIGACIGEGGSRIAAILKELKGEKLDVLKWSDDPKQLIANALAPATVIEVEILDKENKAARVLVPPTQLSLAIGKGGQNARLAAKLTGWKIDIKPIMNL”: the protein production result is recorded as “not failed”.

Regarding “MNIGNITISVIIPVYNASVTLPHCLESLHKQTYRNLELLFVDDCSTDESLYILTSYAEQFAEIDFTIRILQHERNRGVAAARNTALKCATGDYIYYVDADDSIEPHTLECLVNEINHKGLDIVGHEWYLTFNSNARYMKQPAYTTSVEALRKMMGGVMRWNLWLFLVRRSLYVENDIRFTEGLNMGEDMMVMMKLFICAGKVGIVHRPFYHYRQSNPESLTKIYSQEHIIQVANNVYEVEKYVNASAYADSLIEFIPFLKLNIKLPLLITDDKSHYEQWLECFPEANCYVMNNKLLPLRTRIIQWMAVKRYFILLRLYYRTVFKLVYGIIYKLEHHHHHH”, the protein production result is “failed”. Regarding “MNIKINEKWREVKENCTVYALKNEEFPDSHVIVLNGFPLVEDKKLKDGDRIVFIKKGIMPNKEELEELMVSRHTPGIHEKLKRIKVLIAGCGGLGSNIAISLGRIGVGSISLVDFDIVEPSNLNRQQYYIEDIGEFKVTALKRNLIRINPFIKIEALNLKLSEDNMGILQGADIIIEAFDNPDYKALLANYVLGNMKDKFLISSSGMAGFYDSNLIKTKQITDKFYICGDLVNEAKEGCGLMAPRVAICANHMANLVIDIAINKIEFQK”, the protein production entry was “failed”. The entry for “MNIKIVFYVLGGLLRLLGLLMIVPLGVAYYYGESLTPFLVSIVITVLTGLILLSYKTDEDWMRKEGFAIVALGWLAVAVFGAIPFMLDGISPLNSLFEAMSAFTTTGSTILTDIESHPKGILFWRSMMQWLGGMGIIVLFIAVLPKFGVAGRQLFRAEAPGPTEDKLKPRIRETAKILWMVYFVISFAEVVALLLAGLSLYDAITHTFTTMACGGFSPYGTSIEAFRSPLVEYIITFFMFVSGANFALHYRAIYVDKDFLLKDDEFRFYTALTLAATGLLTLLLYRDINTGFFDSFRLAIFQVVSIMTTTGFATADFNFWSDSAKMVLLLIMFVGGCAGSTGGGIKVVRILMLLRHGRVELFKSLHPRAIRGVKFNNKNVPDEVINSIFSFVVIYLFIFMSSALILAVLGMDIITSTTASIATLGNIGPGLNVVGPMGTFDPIPPLGKLILIANMWIGRLEVYTVIVLFTPEFWNK” is “failed”; for “MNIKLYYVHDPMCSWCWGYKPTIEKLKQQLPGVIQFEYVVGGLAPDTNLPMPPEMQQKLEGIWKQIETQLGTKFNYDFWKLCTPVRSTYQSCRAVIAAGFQDSYEQMLEAIQHAYYLRAMPPHEEATHLQLAKEIGLNVQQFKNDMDGTLLEGVFQDQLSLAKSLGVNSYPSLVLQINDAYFPIEVDYLSTEPTLKLIRERIIENMSA” it is “not failed”; for “MNIMLFHSTYGLRPAVRAAADRLRAAGHEVWTPDLLEGRTFETVEEGMAFCDGIGKDELLKRAVLAAAPYSERGLVYAGFSLGASIAQTLALGDEKARGLLLLHGTSDIAESASVDELPVQLHVAEPDAFETDDWLGAWYLQLRRAGADVEVYRYAGAGHLYTDPDLPDYDAEAAEATWKVALGFLDSL” it is “not failed”.

For “MNINENASQYIPHEAPMVFVDDLIEIFDQGALASLTIRPELLFCTAQGLPSWTSIELMAQTISAYSGRNGRQRGHTPRIGFLLGTRKLNLPVAFFELGSTLIIRIEQQYLHEGLGQFACEIEYQAHKISALLSVYEPTVDQDNKENT”, the protein production entry was “failed”.
